According to PMC10533329:

Target: RGA5 HMA domain (rice (Oryza sativa)) (UniProt F7J0N2)
Experiment: SPR; Biacore […]) or 50 to 0 µM ([…]; HBS-EP+ buffer; 1:1 binding model, kinetic fit

Sequence of UniProt F7J0N2 (F7J0N2 997-1066): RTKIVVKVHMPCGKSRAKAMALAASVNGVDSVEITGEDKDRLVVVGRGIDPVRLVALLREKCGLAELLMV

AVR-Pia (purified) (from UniProt B9WZW9 1-85) (natural protein)
Kd: 26.8 µM
